Test: soluble on expression in E. coli; label from the status in PepcDB or PDB records

| Sequence | soluble on expression in E. coli |
| --- | --- |
| MTPLSSPLSQYWQTVVERLPEGFTETSLSVQAKSVLTFSDFALDSVIAHPEWLAELESASPQADEWRHYAGWLQEALAGVCDDASLMRELRFFRRRIMVRIAWAQTLSLVDDETILQQLSHLAETLIVGARDWLYAACCREWGTPCNPQGVPQPLLILGMGKLGGGELNFSSDIDLIFAWPEHGETRGGRRELDNAQFFTRLGQRLIKALDQPTMDGFVYRVDMRLRPFGDSGPLVLSFAALEDYYQEQGRDWERYAMVKARLMGDNDDAWSRELRAMLRPFVFRRYIDFSVIQSLRNMKGMIAREVRRRGLKDNIKLGAGGIREIEFIVQVFQLIRGGREPSLQSRSLLPTLDAIAALHLLPENDVAQLRVAYLFLRRLENLLQSINDEQTQTLPADDLNRARLAWGMKAENWPQLVGELTDHMANVRRVFNELIGDDEADTPQEEERSEPWREVWQDALQEDDSTPVLAHLADEERRQVLTLIADFRKELDKRPIGPRGRQVLDQLMPHLLADVCSREDAAVTLSRITPLLAGIVTRTTYLELLSEFPGALKHLIMLCAASPMIASQLARYPLLLDELLDPGTLYQPTATDAYRDELRQYLLRVPEEDEEQQLEALRQFKQAQLLRIAAADIAGTLPVMKVSDHLTWLAEAMIDAVVQQAWTQMVARYGQPAHLDERQGRGFAVVGYGKLGGWELGYSSDLDLIFLHDCPMDVMTNGEREIDGRQFYLRLAQRIMHLFSTRTSSGILYEVDARLRPSGAAGMLVTSADAFADYQQHEAWTWEHQALVRARVVYGDPQLTSQFDAVRRTIMTTARDGKTLQTEVREMREKMRAHLGNKHRDRFDIKADEGGITDIEFIAQYLVLRYAHEKPKLTRWSDNVRILELLAQNGIMDEHEAQALTVAYTTLRDELHHLALQELPGHVAQTCFSKERALVQASWRKWLVAV | not soluble |
| MTEFQLEKAATLKTIAIRAKKVGEMVDFYKKVMGFVLKSEENNLSIWGTREAGTQLLILEETRKAEDFHNEEKQMAYFSIKVPTEKEFLQIAQRVLEQDYPIDESFQIGTRQSMFITDLEGNQFEIFHDEATANSTSEKQPIVLKDLISEDLEPHQGLAAGSYLAHVQLKTNNQKEIKAYYEEVLGLKRNEKDQFVLEDGKATIGFQKPETSEVDQLPDPHLGLDFFTIKLSDQEHILAMEQQLTAKNQEFFIDQKKAIVTVFDPIGLEWWFVLK | not soluble |
| MLKYNIRGENIEVTEPIRDYVEKKIDKLERYFTETPDANVHVNLKVYSDKNAKVEVTIPLPNLVLRAEETSGDLYASIDLIVDKLERQIRKHKTKVNRKFRDKGAERDYFAYSDVNGSTPPEENEGDFDLEIVRTKQFSLKPMDSEEAVLQMNLLGHSFYVYTDAETNGTNIVYSRKDGKYGLIETNLEHHHHHH | soluble |
| PRHRLLVVGAGQLSRYLCEMAIALDFDVTVSDPRQEYRAGWQVEGVALTTAMPDDMVIAARPDARTAVIALTHDPKLDDLALIDALQTPAFYVGALGSRANHARRVARLREHFGLTPAQLARLRGPAGIY | not soluble |
| GSKESPLHGTQNTINKRTQPTFGFTVNWKFSESTTVFTGQCFIDRNGKEVLKTMWLLRSSVNDIGDDWKATRVGIMIFTRLRTQKEGGSGGSARKCSLTGKWTNDLGSNMTIGAVNSRGEFTGTYITAVT | soluble |
| RVVTQNEIDRTIPVGAIMMWAADSLPSDAWRFCHGGTVSASDCPLYASRIGTRYGGSSSNPGLPDMRGLFVRGSGRGSHLTNPNVNGNDQFGKPRLGVGCTGGYVGEVQKQQMSYHKHAGGFGEYDDSGAFGNTRRSNFVGTRKGLDWDNRSYFTNDGYEIDPASQRNSRYTLNRPELIGNETRPWNISLNYIIKVKE | soluble |
| MSAKKERVDVLLVERGLIETREKAKRAIMAGLVYANEMRLDKPGEKIPQDTEITVKGQVMPYVSRGGYKLEKALETFHLDLQDKVMIDIGSSTGGFTDCALQNGAKLSYALDVGYNQLAWKLRQDERVVVMERTNFRYVTPADLERGLPQFASIDVSFISLKLILPVLKTMLMPNGDVAALIKPQFEAGREQVGKKGIVRDRKVHEAVVEMIVDFAIKEGYDVEGLTFSPITGGDGNIEFLIHLKWHGERENGENHSPVSVEQVVTEAHDVLKQKGKGE | not soluble |
| GILDPEERYEHQLRQLNDMGFFDFDRNVAALRRSGGSVQGALDSLLNGDV | soluble |
| GPLHMKAVVPGPAEHPLQYNYTFWYSRRTPGRPTSSQSYEQNIKQIGTFASVEQFWRFYSHMVRPGDLTGHSDFHLFKEGIKPMWEDDANKNGGKWIIRLRKGLASRCWENLILAMLGEQFMVGEEICGAVVSVRFQEDIISIWNKTASDQATTARIRDTLRRVLNLPPNTIMEYKTHTDSIKMPGRLGPQRLLF | soluble |
